Source: the RNAGym collection of RNA variant scans (doi:10.7554/elife.80360)

B1: Hairpin Ribozyme (parent)
chain: GUCCUCUUUCACGUGCGCGUGAAAGAGAGAAGUGAACCAGAGAAACACACGUUGUGGUAUAUUACCUGGUA

Variants of: B1
Test: self-cleavage, relative activity (ratio to wild type); higher = more cleavage; co-transcriptional

Compared with A39C G51C, A39U G57U is lower in self-cleavage: 0.324 for the first, 0.123 for the second.

First: A39U G57C
Second: A39U G57A
The self-cleavage of the first is lower: 0.134 for the first, 0.155 for the second.

Going from C38G U62C to C37A A41G, the self-cleavage rises from 0.236 to 0.339.

Going from A36U U55A to C37G U52C, the self-cleavage rises from 0.161 to 0.242.

First: C37G U52A
Second: C37G G54U
The self-cleavage of the first is higher: 0.358 for the first, 0.255 for the second.

Going from A36G U63G to C38U C50G, the self-cleavage falls from 0.3 to 0.0694.

First: C37U G42C
Second: C37U G42A
The self-cleavage of the first is higher: 0.226 for the first, 0.198 for the second.

First: C37A C66U
Second: C37A C66G
The self-cleavage of the first is higher: 0.179 for the first, 0.105 for the second.

Compared with C37A C66A, A39C A61U is higher in self-cleavage: 0.0612 for the first, 0.125 for the second.

First: A39G C48A
Second: C38U G57A
The self-cleavage of the first is lower: 0.0878 for the first, 0.229 for the second.

Going from C37G U63C to A39G G68A, the self-cleavage falls from 0.154 to 0.0973.

A39G G68C and C38A A59C are the same in self-cleavage: 0.103 for the first, 0.103 for the second.

Compared with A36G U60C, A36G U60A is lower in self-cleavage: 1.1 for the first, 0.779 for the second.

Compared with A36G U60G, A39G G54U is lower in self-cleavage: 0.62 for the first, 0.163 for the second.

First: C37A A64C
Second: A39U A71C
The self-cleavage of the first is lower: 0.144 for the first, 0.694 for the second.

Compared with C37G C48A, C37G G51A is higher in self-cleavage: 0.192 for the first, 0.647 for the second.

First: A39U A61C
Second: A39C U52C
The self-cleavage of the first is lower: 0.187 for the first, 0.56 for the second.

Going from A36U A71C to A39G G56U, the self-cleavage falls from 0.959 to 0.0978.

First: A39G G56A
Second: C38G U70G
The self-cleavage of the first is lower: 0.147 for the first, 0.216 for the second.

Compared with C38A C48U, C37G U67G is lower in self-cleavage: 0.135 for the first, 0.132 for the second.

First: C37G U67C
Second: C37A A61G
The self-cleavage of the first is lower: 0.167 for the first, 0.207 for the second.

Going from C37A G68C to A39U A45G, the self-cleavage falls from 0.254 to 0.252.

Going from A39U A45C to A39G C66G, the self-cleavage falls from 0.123 to 0.0926.

First: A39C U63A
Second: A39G U58C
The self-cleavage of the first is lower: 0.17 for the first, 0.272 for the second.

Compared with A36U U53A, C37A is lower in self-cleavage: 0.464 for the first, 0.345 for the second.

First: C37U
Second: C37G
The self-cleavage of the first is higher: 0.614 for the first, 0.363 for the second.

Going from A39G A45G to C37U U58C, the self-cleavage rises from 0.0935 to 0.743.

Going from A39C C48U to C38G A41U, the self-cleavage rises from 0.145 to 0.358.

First: C37G A61C
Second: C37U U62G
The self-cleavage of the first is lower: 0.112 for the first, 0.166 for the second.

First: C37U U62A
Second: A39U G51U
The self-cleavage of the first is lower: 0.165 for the first, 0.632 for the second.

Compared with C38U G54C, C38U G54U is higher in self-cleavage: 0.235 for the first, 0.336 for the second.

Going from C38U G51C to A39U G54C, the self-cleavage falls from 0.583 to 0.0503.

First: A39G G40A
Second: C38U A64U
The self-cleavage of the first is lower: 0.102 for the first, 0.301 for the second.

Going from C38G G69U to C38G G69C, the self-cleavage rises from 0.155 to 0.241.

Compared with C38G G69A, C38U A45G is higher in self-cleavage: 0.196 for the first, 0.197 for the second.

First: C38U A45C
Second: A39C G42U
The self-cleavage of the first is lower: 0.108 for the first, 0.11 for the second.

First: A39C G54A
Second: C37G A49G
The self-cleavage of the first is lower: 0.121 for the first, 0.18 for the second.

Compared with C37A U63G, C37U U70A is higher in self-cleavage: 0.131 for the first, 0.544 for the second.

First: C37U U70C
Second: C38G A49G
The self-cleavage of the first is higher: 0.603 for the first, 0.0605 for the second.

First: C38G A49C
Second: C37A C50U
The self-cleavage of the first is lower: 0.106 for the first, 0.138 for the second.

Compared with A36U C66A, A39C U62C is higher in self-cleavage: 0.114 for the first, 0.161 for the second.

First: A39U U55A
Second: A36U U60A
The self-cleavage of the first is lower: 0.155 for the first, 0.487 for the second.

Compared with C38G C46A, C38G C46U is lower in self-cleavage: 0.148 for the first, 0.116 for the second.

Compared with A39U U53A, C37A A49G is higher in self-cleavage: 0.233 for the first, 0.325 for the second.

Going from C37A A49C to C37G A59U, the self-cleavage rises from 0.0162 to 0.0586.

Going from C38U C46A to C38A G56U, the self-cleavage falls from 0.182 to 0.179.

First: C38A C65G
Second: C38A C65U
The self-cleavage of the first is lower: 0.104 for the first, 0.204 for the second.

Going from A39C U55A to C38U U58C, the self-cleavage rises from 0.148 to 0.544.

Compared with C38A U63G, C38A U63A is lower in self-cleavage: 0.165 for the first, 0.0537 for the second.

Going from C37U C66U to C38U A71C, the self-cleavage rises from 0.264 to 0.889.

First: C38U A71U
Second: A36U A59C
The self-cleavage of the first is higher: 0.401 for the first, 0.228 for the second.

First: C38G U53G
Second: C38G U53C
The self-cleavage of the first is higher: 0.206 for the first, 0.196 for the second.

Compared with C37G U60C, C37U G54C is higher in self-cleavage: 0.331 for the first, 0.338 for the second.

Compared with C37A A45G, C37G U70A is higher in self-cleavage: 0.0956 for the first, 0.488 for the second.

First: A39U C50A
Second: A39U C50G
The self-cleavage of the first is higher: 0.139 for the first, 0.0689 for the second.

First: A39U C50U
Second: A39U A47G
The self-cleavage of the first is higher: 0.204 for the first, 0.158 for the second.

First: A39C A41G
Second: A39G G69U
The self-cleavage of the first is higher: 0.591 for the first, 0.122 for the second.

Going from C37G A43U to C37G A43C, the self-cleavage falls from 0.177 to 0.108.

Compared with C37G A43G, C38G G40U is lower in self-cleavage: 0.261 for the first, 0.169 for the second.

Compared with C38G G40A, C38U G40U is lower in self-cleavage: 0.148 for the first, 0.101 for the second.

Compared with C38G A47U, C38U C66U is higher in self-cleavage: 0.171 for the first, 0.192 for the second.

Compared with C38U C66A, C38G A64U is lower in self-cleavage: 0.167 for the first, 0.112 for the second.

Going from A36U C48G to C37A G69U, the self-cleavage rises from 0.182 to 0.777.

Going from C38A A61U to C37U A49C, the self-cleavage rises from 0.064 to 0.0924.

First: C37U A49G
Second: A36U C38U
The self-cleavage of the first is higher: 0.508 for the first, 0.112 for the second.

First: A36U C38A
Second: A39G A43U
The self-cleavage of the first is lower: 0.0871 for the first, 0.141 for the second.

Going from A36G U67A to C38G A45G, the self-cleavage rises from 0.195 to 0.259.

Compared with C38G A45C, C38U A59U is higher in self-cleavage: 0.0432 for the first, 0.228 for the second.

Compared with A39C G69U, A39C G69C is higher in self-cleavage: 0.147 for the first, 0.188 for the second.

First: A39G A47U
Second: A39G A47G
The self-cleavage of the first is higher: 0.134 for the first, 0.116 for the second.

Compared with A36U U67C, A39U C46A is higher in self-cleavage: 0.133 for the first, 0.166 for the second.

First: A39U C46U
Second: A36U U58A
The self-cleavage of the first is lower: 0.114 for the first, 0.386 for the second.

Going from C37U A39G to C38U G69A, the self-cleavage falls from 0.269 to 0.138.

Compared with A36U A39C, A39C A47C is higher in self-cleavage: 0.084 for the first, 0.207 for the second.

First: C37A U53G
Second: C37U A45U
The self-cleavage of the first is higher: 0.23 for the first, 0.11 for the second.

First: C37U A45C
Second: A36G U58C
The self-cleavage of the first is lower: 0.109 for the first, 1 for the second.

Compared with A36G U62G, C37G A39G is higher in self-cleavage: 0.221 for the first, 0.328 for the second.

Compared with C37G A39U, C37G G40U is higher in self-cleavage: 0.0635 for the first, 0.186 for the second.

First: C37U C65A
Second: A36U C65U
The self-cleavage of the first is higher: 0.533 for the first, 0.113 for the second.

Going from C37A U70G to C38U U60A, the self-cleavage falls from 0.446 to 0.428.

Going from C38U U60C to C37U G69A, the self-cleavage falls from 0.759 to 0.46.

First: C37U G69U
Second: A36U A47G
The self-cleavage of the first is higher: 0.438 for the first, 0.172 for the second.

First: A36U A47U
Second: C37G A71U
The self-cleavage of the first is lower: 0.141 for the first, 0.216 for the second.

For C37G A71C, the self-cleavage was 0.784.
